Data as given in the supplement of paper PMC10065799, “High-throughput profiling of sequence recognition by tyrosine kinases and SH2 domains using bacterial peptide display” (eLife, 2023).
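Note: 11-residue human phosphosite peptides and single-mutation variants displayed on the E. coli surface, counted by deep sequencing, each peptide's frequency after selection divided by its frequency in the unselected input library; frequency after pTyr selection over input frequency; kinase dosed for 20-30% of maximal phosphorylation in three min.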

The sequences below were run on AncSZ (assay: phosphorylation enrichment, bacterial display (enrichment ratio); higher = better substrate or ligand; peptides without Tyr show the background).
HPFHVYSQPGM [BAG3_Y114_P115S] was tested, and the phosphorylation enrichment was 1.78. In the case of KLQKYYRQNPD [EHHADH_Y683], the phosphorylation enrichment is reported as 0.565. Work on KDGIGYISAAE [CALM2_Y100_N98I] yielded a phosphorylation enrichment of 0.635. Work on QFLMMYVWSAS [ABCD1_Y337_K336M] yielded a phosphorylation enrichment of 1.53. Work on GGRKGYGGFSR [RECQL5_Y478_D480G] yielded a phosphorylation enrichment of 0.551. Sequence CHSDDYVHISL [TSC1_Y406] has a phosphorylation enrichment of 1.27. In the case of PVQAADQKVVA [HBB_Y131_Y131D], the phosphorylation enrichment is reported as 0.918. Sequence FKDVTYLKEEK [UBE3A_Y127_T129K] has a phosphorylation enrichment of 0.891. PVVKLYATEGR [RP1_Y199_D202E] showed a phosphorylation enrichment of 0.858. Sequence VFFFSYLLKNH [PTEN_Y180_YF] has a phosphorylation enrichment of 1.06. KPLMPYMRFSR [SMARCE1_Y73_YF] gave a phosphorylation enrichment of 1.3. Work on SRDDDYETIAM [NPY1R_Y347] yielded a phosphorylation enrichment of 1.75. EEGNPYFSSAR [MCCC2_Y520_YF] showed a phosphorylation enrichment of 1.01. With DRPASYKKKSM [PDGFRA_Y768] the phosphorylation enrichment was 0.383. In the case of KANEYYPVVLI [ADAMTS18_Y765], the phosphorylation enrichment is reported as 1.97. In the case of VDASYYGGRGV [ANTXR2_Y381], the phosphorylation enrichment is reported as 0.702. MDDPRYGMCPL [ZNF100_Y6] gave a phosphorylation enrichment of 1.16. Work on RGEKQYLATPL [ALOX12_Y295_A298T] yielded a phosphorylation enrichment of 0.861. With SLGSPYEQPPR [PDLIM4_Y137_G138E] the phosphorylation enrichment was 0.909. Sequence AFLEDYFTSTE [SRC_Y522] has a phosphorylation enrichment of 1.91. Work on AEMKRYSESSS [RAI14_Y869_A870S] yielded a phosphorylation enrichment of 0.524. VECQVYAEDPF [PCCA_Y401_R399Q_YF] showed a phosphorylation enrichment of 1.22. Sequence TYGVVYKARNK [CDK2_Y19] has a phosphorylation enrichment of 1.18. With FSNVLYRPRGP [TMIGD2_Y197_A202P_YF] the phosphorylation enrichment was 0.549. Sequence EAAFVYVISSA [WNT4_Y113_A114V] has a phosphorylation enrichment of 1.32. IFLGAYDRFLP [SLC22A5_Y486_V481I_YF] gave a phosphorylation enrichment of 1.06. LLKNMYLMLDN [STAT1_Y203_K201N] showed a phosphorylation enrichment of 2.85. Sequence KTGDFYDLFGG [PTPN11_Y63_N58K_YF] has a phosphorylation enrichment of 0.956. With YFCRWYRNRKS [EREG_Y144] the phosphorylation enrichment was 0.864.

What follows are sequences tested against Fes (UniProt P07332) in the same assay as above.
Chain of Fes (P07332 whole entry, looked up): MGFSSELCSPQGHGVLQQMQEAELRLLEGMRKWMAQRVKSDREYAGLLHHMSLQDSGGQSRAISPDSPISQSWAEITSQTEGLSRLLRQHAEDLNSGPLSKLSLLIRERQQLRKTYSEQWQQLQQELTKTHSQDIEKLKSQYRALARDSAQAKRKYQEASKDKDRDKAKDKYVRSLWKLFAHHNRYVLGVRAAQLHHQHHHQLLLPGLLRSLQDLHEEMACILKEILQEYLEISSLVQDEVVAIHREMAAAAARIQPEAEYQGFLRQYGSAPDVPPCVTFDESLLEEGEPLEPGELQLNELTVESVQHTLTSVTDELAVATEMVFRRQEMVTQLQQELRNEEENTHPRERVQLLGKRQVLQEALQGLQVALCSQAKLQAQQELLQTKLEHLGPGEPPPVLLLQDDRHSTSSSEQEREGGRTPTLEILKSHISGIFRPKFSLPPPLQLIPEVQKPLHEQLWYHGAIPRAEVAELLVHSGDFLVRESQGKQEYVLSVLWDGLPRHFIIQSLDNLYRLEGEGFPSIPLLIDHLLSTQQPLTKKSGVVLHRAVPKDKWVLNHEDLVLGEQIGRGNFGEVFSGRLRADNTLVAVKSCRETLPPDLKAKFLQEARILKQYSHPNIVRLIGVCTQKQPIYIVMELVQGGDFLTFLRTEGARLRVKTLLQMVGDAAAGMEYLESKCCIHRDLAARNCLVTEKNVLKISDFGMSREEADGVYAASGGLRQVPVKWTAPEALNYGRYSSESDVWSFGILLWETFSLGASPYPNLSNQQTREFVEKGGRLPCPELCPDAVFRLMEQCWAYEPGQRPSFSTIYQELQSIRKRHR
Sequence HPFHVYSQPGM [BAG3_Y114_P115S] has a phosphorylation enrichment of 1.39. Sequence KLQKYYRQNPD [EHHADH_Y683] has a phosphorylation enrichment of 0.591. In the case of KDGIGYISAAE [CALM2_Y100_N98I], the phosphorylation enrichment is reported as 0.763. With QFLMMYVWSAS [ABCD1_Y337_K336M] the phosphorylation enrichment was 1.58. With GGRKGYGGFSR [RECQL5_Y478_D480G] the phosphorylation enrichment was 0.491. For CHSDDYVHISL [TSC1_Y406], the phosphorylation enrichment was 1.13. For PVQAADQKVVA [HBB_Y131_Y131D], the phosphorylation enrichment was 1.18. FKDVTYLKEEK [UBE3A_Y127_T129K] showed a phosphorylation enrichment of 1.28. PVVKLYATEGR [RP1_Y199_D202E] gave a phosphorylation enrichment of 0.807. With VFFFSYLLKNH [PTEN_Y180_YF] the phosphorylation enrichment was 1.57. KPLMPYMRFSR [SMARCE1_Y73_YF] was tested, and the phosphorylation enrichment was 0.872. SRDDDYETIAM [NPY1R_Y347] was tested, and the phosphorylation enrichment was 1.28. EEGNPYFSSAR [MCCC2_Y520_YF] was tested, and the phosphorylation enrichment was 0.966. DRPASYKKKSM [PDGFRA_Y768] showed a phosphorylation enrichment of 0.517. Work on KANEYYPVVLI [ADAMTS18_Y765] yielded a phosphorylation enrichment of 0.813. VDASYYGGRGV [ANTXR2_Y381] was tested, and the phosphorylation enrichment was 0.665. With MDDPRYGMCPL [ZNF100_Y6] the phosphorylation enrichment was 1.38. Sequence RGEKQYLATPL [ALOX12_Y295_A298T] has a phosphorylation enrichment of 1.01. SLGSPYEQPPR [PDLIM4_Y137_G138E] showed a phosphorylation enrichment of 0.757. In the case of AFLEDYFTSTE [SRC_Y522], the phosphorylation enrichment is reported as 1.83. AEMKRYSESSS [RAI14_Y869_A870S] showed a phosphorylation enrichment of 0.638. With VECQVYAEDPF [PCCA_Y401_R399Q_YF] the phosphorylation enrichment was 1.24. Work on TYGVVYKARNK [CDK2_Y19] yielded a phosphorylation enrichment of 0.691. For FSNVLYRPRGP [TMIGD2_Y197_A202P_YF], the phosphorylation enrichment was 0.674. EAAFVYVISSA [WNT4_Y113_A114V] gave a phosphorylation enrichment of 1.45. IFLGAYDRFLP [SLC22A5_Y486_V481I_YF] was tested, and the phosphorylation enrichment was 1. LLKNMYLMLDN [STAT1_Y203_K201N] showed a phosphorylation enrichment of 2.63. For KTGDFYDLFGG [PTPN11_Y63_N58K_YF], the phosphorylation enrichment was 0.879. With YFCRWYRNRKS [EREG_Y144] the phosphorylation enrichment was 0.635.

What follows are sequences tested on c-Src in the same assay as above.
HPFHVYSQPGM [BAG3_Y114_P115S] showed a phosphorylation enrichment of 0.937. In the case of KLQKYYRQNPD [EHHADH_Y683], the phosphorylation enrichment is reported as 0.42. KDGIGYISAAE [CALM2_Y100_N98I] gave a phosphorylation enrichment of 0.427. QFLMMYVWSAS [ABCD1_Y337_K336M] was tested, and the phosphorylation enrichment was 0.779. Sequence GGRKGYGGFSR [RECQL5_Y478_D480G] has a phosphorylation enrichment of 0.487. With CHSDDYVHISL [TSC1_Y406] the phosphorylation enrichment was 0.495. For PVQAADQKVVA [HBB_Y131_Y131D], the phosphorylation enrichment was 0.605. FKDVTYLKEEK [UBE3A_Y127_T129K] gave a phosphorylation enrichment of 0.523. PVVKLYATEGR [RP1_Y199_D202E] gave a phosphorylation enrichment of 0.54. For VFFFSYLLKNH [PTEN_Y180_YF], the phosphorylation enrichment was 0.426. For KPLMPYMRFSR [SMARCE1_Y73_YF], the phosphorylation enrichment was 0.508. For SRDDDYETIAM [NPY1R_Y347], the phosphorylation enrichment was 0.562. EEGNPYFSSAR [MCCC2_Y520_YF] gave a phosphorylation enrichment of 1.15. DRPASYKKKSM [PDGFRA_Y768] showed a phosphorylation enrichment of 0.409. Sequence KANEYYPVVLI [ADAMTS18_Y765] has a phosphorylation enrichment of 0.655. VDASYYGGRGV [ANTXR2_Y381] gave a phosphorylation enrichment of 0.999. With MDDPRYGMCPL [ZNF100_Y6] the phosphorylation enrichment was 0.685. RGEKQYLATPL [ALOX12_Y295_A298T] showed a phosphorylation enrichment of 0.812. For SLGSPYEQPPR [PDLIM4_Y137_G138E], the phosphorylation enrichment was 0.547. For AFLEDYFTSTE [SRC_Y522], the phosphorylation enrichment was 0.783. In the case of AEMKRYSESSS [RAI14_Y869_A870S], the phosphorylation enrichment is reported as 0.382. For VECQVYAEDPF [PCCA_Y401_R399Q_YF], the phosphorylation enrichment was 0.602. In the case of TYGVVYKARNK [CDK2_Y19], the phosphorylation enrichment is reported as 1.33. Sequence FSNVLYRPRGP [TMIGD2_Y197_A202P_YF] has a phosphorylation enrichment of 0.463. EAAFVYVISSA [WNT4_Y113_A114V] was tested, and the phosphorylation enrichment was 0.631. IFLGAYDRFLP [SLC22A5_Y486_V481I_YF] was tested, and the phosphorylation enrichment was 3.69. LLKNMYLMLDN [STAT1_Y203_K201N] was tested, and the phosphorylation enrichment was 0.933. KTGDFYDLFGG [PTPN11_Y63_N58K_YF] was tested, and the phosphorylation enrichment was 2.65. YFCRWYRNRKS [EREG_Y144] showed a phosphorylation enrichment of 0.753.

Each sequence was assayed against Fyn (UniProt P06241) in the same assay as above.
Chain of Fyn (P06241 whole entry, looked up): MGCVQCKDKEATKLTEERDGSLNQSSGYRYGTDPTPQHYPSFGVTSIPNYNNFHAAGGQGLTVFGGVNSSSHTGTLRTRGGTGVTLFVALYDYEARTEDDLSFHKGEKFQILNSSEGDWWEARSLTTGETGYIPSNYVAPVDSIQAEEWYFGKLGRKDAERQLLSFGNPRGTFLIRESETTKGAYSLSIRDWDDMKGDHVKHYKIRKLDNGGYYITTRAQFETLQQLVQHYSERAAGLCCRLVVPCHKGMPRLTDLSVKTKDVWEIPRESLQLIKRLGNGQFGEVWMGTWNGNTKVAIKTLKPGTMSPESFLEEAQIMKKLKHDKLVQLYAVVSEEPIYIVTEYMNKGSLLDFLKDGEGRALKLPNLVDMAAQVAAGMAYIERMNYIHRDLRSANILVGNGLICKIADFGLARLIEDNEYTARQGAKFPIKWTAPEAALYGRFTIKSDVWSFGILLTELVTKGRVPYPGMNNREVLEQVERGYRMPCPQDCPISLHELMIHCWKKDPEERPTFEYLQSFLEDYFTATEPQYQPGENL
With HPFHVYSQPGM [BAG3_Y114_P115S] the phosphorylation enrichment was 1.24. KLQKYYRQNPD [EHHADH_Y683] gave a phosphorylation enrichment of 0.348. Sequence KDGIGYISAAE [CALM2_Y100_N98I] has a phosphorylation enrichment of 0.466. With QFLMMYVWSAS [ABCD1_Y337_K336M] the phosphorylation enrichment was 0.465. Sequence GGRKGYGGFSR [RECQL5_Y478_D480G] has a phosphorylation enrichment of 0.513. With CHSDDYVHISL [TSC1_Y406] the phosphorylation enrichment was 0.502. PVQAADQKVVA [HBB_Y131_Y131D] showed a phosphorylation enrichment of 0.62. Sequence FKDVTYLKEEK [UBE3A_Y127_T129K] has a phosphorylation enrichment of 0.514. With PVVKLYATEGR [RP1_Y199_D202E] the phosphorylation enrichment was 0.633. VFFFSYLLKNH [PTEN_Y180_YF] showed a phosphorylation enrichment of 0.373. KPLMPYMRFSR [SMARCE1_Y73_YF] was tested, and the phosphorylation enrichment was 0.591. With SRDDDYETIAM [NPY1R_Y347] the phosphorylation enrichment was 0.612. With EEGNPYFSSAR [MCCC2_Y520_YF] the phosphorylation enrichment was 0.61. DRPASYKKKSM [PDGFRA_Y768] was tested, and the phosphorylation enrichment was 0.365. Work on KANEYYPVVLI [ADAMTS18_Y765] yielded a phosphorylation enrichment of 0.572. With VDASYYGGRGV [ANTXR2_Y381] the phosphorylation enrichment was 0.786. MDDPRYGMCPL [ZNF100_Y6] showed a phosphorylation enrichment of 0.721. In the case of RGEKQYLATPL [ALOX12_Y295_A298T], the phosphorylation enrichment is reported as 0.665. Sequence SLGSPYEQPPR [PDLIM4_Y137_G138E] has a phosphorylation enrichment of 0.495. AFLEDYFTSTE [SRC_Y522] was tested, and the phosphorylation enrichment was 0.54. In the case of AEMKRYSESSS [RAI14_Y869_A870S], the phosphorylation enrichment is reported as 0.503. VECQVYAEDPF [PCCA_Y401_R399Q_YF] was tested, and the phosphorylation enrichment was 0.52. Work on TYGVVYKARNK [CDK2_Y19] yielded a phosphorylation enrichment of 1.81. FSNVLYRPRGP [TMIGD2_Y197_A202P_YF] showed a phosphorylation enrichment of 0.438. In the case of EAAFVYVISSA [WNT4_Y113_A114V], the phosphorylation enrichment is reported as 0.606. Sequence IFLGAYDRFLP [SLC22A5_Y486_V481I_YF] has a phosphorylation enrichment of 2.45. LLKNMYLMLDN [STAT1_Y203_K201N] was tested, and the phosphorylation enrichment was 0.593. With KTGDFYDLFGG [PTPN11_Y63_N58K_YF] the phosphorylation enrichment was 3.14. YFCRWYRNRKS [EREG_Y144] showed a phosphorylation enrichment of 0.618.
